Assay results published in publication PMC12500691 (Frontiers in Cellular and Infection Microbiology, 2025).
Where no end group is shown, it is not given here.

B1: LL-37 (peptide)
peptide: LLGDFFRKSKEKIGKEFKRIVQRIKDFLRNLVPRTES
notes: also called synthetic LL-37; human antimicrobial peptide LL-37; source: synthetic peptide, bought: Invivogen
B2: gold-labeled LL-37 (peptide)
peptide: LLGDFFRKSKEKIGKEFKRIVQRIKDFLRNLVPRTES
modifications: also: directly conjugated with colloidal gold
notes: also called LL-37 directly conjugated with colloidal gold; source: synthetic peptide, bought: Invivogen; conjugated with colloidal gold

Legend:
SARS-CoV-2 ORF7a = target: T1, SARS-CoV-2 ORF7a (SARS-CoV-2 (Wuhan variant), UniProt P0DTC7 16-96); experiment: SPR; conditions: both partners purified
T1 construct: also called open reading frame 7a; accessory protein ORF7a; not shown: twin strep tag, N-terminal, kept
T1 sequence: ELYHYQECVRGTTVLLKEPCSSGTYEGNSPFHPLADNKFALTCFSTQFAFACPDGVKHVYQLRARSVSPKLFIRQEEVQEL

SARS-CoV-2 ORF8 = target: T2, SARS-CoV-2 ORF8 (SARS-CoV-2 (Wuhan variant), UniProt P0DTC8 16-121); experiment: negative stain electron microscopy; conditions: both partners purified
T2 construct: also called open reading frame 8; accessory protein ORF8; not shown: twin strep tag, N-terminal, kept
T2 sequence (P0DTC8 16-121): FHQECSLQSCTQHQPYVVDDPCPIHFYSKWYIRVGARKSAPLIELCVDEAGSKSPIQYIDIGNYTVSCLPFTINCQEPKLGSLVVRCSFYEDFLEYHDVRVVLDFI

| Binder | Kd (SARS-CoV-2 ORF7a) [nM] | stoichiometry N (SARS-CoV-2 ORF8) |
| --- | --- | --- |
| B1 | 138 | – |
| B2 | – | 1 |
